Test results taken from patent US12338268B2, “Compositions and methods for treating protein aggregation-associated diseases” (The Board of Trustees of the Leland Stanford Junior …, priority 2019, dated 2025).

Tests used:
[1] = biological target: T1, FlucDM-EGFP (Photinus pyralis, UniProt P08659, R188Q/R261Q); experiment: FlucDM-EGFP aggregation after heat-shock in C. elegans; format: in vivo; conditions: overexpressed in muscle cells; heat-shock 1 h, 33° C.; 24 h recovery at 20° C.
T1 construct: expressed in transfected cells; host or cells: C. elegans muscle cells (transgenic strain, unc-54 promoter)
T1 sequence (P08659 whole entry R188Q/R261Q): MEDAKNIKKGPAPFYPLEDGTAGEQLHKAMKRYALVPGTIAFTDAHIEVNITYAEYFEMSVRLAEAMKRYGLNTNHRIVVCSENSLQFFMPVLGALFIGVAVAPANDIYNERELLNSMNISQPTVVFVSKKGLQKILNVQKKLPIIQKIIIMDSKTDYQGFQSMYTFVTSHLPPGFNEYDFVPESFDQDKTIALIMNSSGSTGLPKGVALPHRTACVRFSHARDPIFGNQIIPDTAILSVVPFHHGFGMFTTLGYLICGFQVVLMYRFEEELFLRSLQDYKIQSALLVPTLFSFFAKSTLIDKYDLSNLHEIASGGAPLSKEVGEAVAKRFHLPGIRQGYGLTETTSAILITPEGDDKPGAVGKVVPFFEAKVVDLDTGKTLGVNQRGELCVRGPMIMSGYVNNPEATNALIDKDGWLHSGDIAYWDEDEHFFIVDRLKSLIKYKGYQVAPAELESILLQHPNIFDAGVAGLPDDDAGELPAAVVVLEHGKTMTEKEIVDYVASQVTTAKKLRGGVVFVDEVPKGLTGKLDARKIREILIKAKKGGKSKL
Experimental: We further investigated NAC activity on luciferase refolding in vivo using a C. elegans strain expressing a structurally destabilized version of luciferase fused to EGFP (FlucDM-EGFP) in muscle cells (Gupta et al., 2011). This protein is soluble at moderate temperature but aggregates upon heat stress. After heat-shock (1 h, 33° C.) of worms, FlucDM-EGFP formed large punctate aggregates which were still evident in control animals after 24 h recovery at 20° C. (FIG. 4B, “ev”). […] Thus, efficient luciferase refolding by NAC depends on N-βNAC, in vitro and in vivo.
Worms were cultured according to standard techniques with E. coli OP50 as food source (Brenner, 1974). Transgenic strains were generated using standard microinjection protocols (Mello and Fire, 1995). Constructs for overexpression of NAC in body wall muscles were generated by cloning the coding sequences of icd-1 (βNAC) and icd-2 (αNAC) into a vector containing the myo-3 promoter and the unc-54 3′-untranslated region (UTR). The NAC genes were N-terminally tagged with 3×FLAG. Mutant NAC constructs were generated by standard mutagenesis protocols. AM140 (unc-54p::Q35::YFP) and FlucDM-EGFP (unc-54p::luciferase::GFP) worms were injected with 25 ng/μl of each NAC plasmid together with myo-2p::mCherry (2.5 ng/μl) and DNA ladder (100 ng/μl, GeneRuler 1 kb, Thermo Scientific). […]

[2] = tested on: PolyQ35::YFP C. elegans worms; experiment: Paralysis assay; format: in vivo; conditions: overexpression; day 6 to 10 of adulthood
Experimental: To analyze the percentage of paralyzed worms, 100 semi-synchronized (timed egg lay for 5 h) young adult worms of each strain were placed on a plate containing 150 μM 5-fluorodeoxyuridine. Screening of paralyzed worms was started at day 6 of adulthood.

B1: NAC: nascent polypeptide-associated complex, heterodimer of αNAC and βNAC; species not given at the place (C. elegans icd-1/icd-2 when overexpressed in worms) (protein)
chain 1: MTGSTETRQKEVKEPQVDVSDDSDNEAVEQELTEEQRRVAEAAGLGDHIDKQAKQSRSEKKARKLFSKLGLKQVTGVSRVCIRKSKNILFVINKPDVFKSPGSDTYIIFGEAKIEDLTQHAQMSAIENLKPTREAPQLKTVEEDENEDVEEDSTGIEEKDIELVISQANTTRNKAIRALKEADNDIVNAIMSLTM
chain 2: MMDSKAIAERIKKLQAQQEHVRIGGKGTPRRKKKVIHKTAAADDKKLQSNLKKLSVTNIPGIEEVNMIKDDGTVIHFNNPKVQTSVPANTFSVTGSADNKQITEMLPGILNQLGPESLTHLKKLANNVTKLGPDGKGEDEDVPELVGDFDAASKNETKADEQ
FlucDM-EGFP aggregates after heat-shock and recovery [1]: fully revert back to diffuse GFP signal
motility / age-associated paralysis of PolyQ35::YFP-expressing worms [2]: significantly improves motility
